Results reported in article doi:10.1101/2024.02.02.578563.

Tests used:
Test in all cases: EMSA
rGST hnRNPA2B1 = rGST hnRNPA2B1 (UniProt P22626 1-353)
rGST APE1 WT = rGST APE1 WT (human, UniProt P27695 1-318)
[1] = target: rGST APE1 NdeltaN33 (APE1NΔ33) (human, UniProt P27695 34-318, del1-33)
Chain of rGST APE1 NdeltaN33 (APE1NΔ33) (P27695 34-318, stated change not applied): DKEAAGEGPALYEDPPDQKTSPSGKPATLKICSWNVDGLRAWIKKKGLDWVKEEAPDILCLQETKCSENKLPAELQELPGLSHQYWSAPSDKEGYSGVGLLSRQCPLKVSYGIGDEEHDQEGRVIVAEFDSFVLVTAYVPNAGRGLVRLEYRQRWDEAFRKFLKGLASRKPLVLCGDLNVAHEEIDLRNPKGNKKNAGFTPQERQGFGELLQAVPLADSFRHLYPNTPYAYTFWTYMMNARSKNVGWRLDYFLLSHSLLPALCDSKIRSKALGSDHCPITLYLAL

Chain of rGST APE1 WT (P27695 whole entry): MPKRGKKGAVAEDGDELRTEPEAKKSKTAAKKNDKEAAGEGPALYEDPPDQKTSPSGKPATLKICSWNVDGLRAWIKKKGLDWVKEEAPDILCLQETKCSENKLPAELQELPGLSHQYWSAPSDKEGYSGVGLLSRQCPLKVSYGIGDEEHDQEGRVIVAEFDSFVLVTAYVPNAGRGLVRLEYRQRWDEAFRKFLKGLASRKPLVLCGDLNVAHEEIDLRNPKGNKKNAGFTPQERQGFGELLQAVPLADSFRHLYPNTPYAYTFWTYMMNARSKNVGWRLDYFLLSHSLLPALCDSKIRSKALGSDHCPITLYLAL
Chain of rGST hnRNPA2B1 (P22626 whole entry): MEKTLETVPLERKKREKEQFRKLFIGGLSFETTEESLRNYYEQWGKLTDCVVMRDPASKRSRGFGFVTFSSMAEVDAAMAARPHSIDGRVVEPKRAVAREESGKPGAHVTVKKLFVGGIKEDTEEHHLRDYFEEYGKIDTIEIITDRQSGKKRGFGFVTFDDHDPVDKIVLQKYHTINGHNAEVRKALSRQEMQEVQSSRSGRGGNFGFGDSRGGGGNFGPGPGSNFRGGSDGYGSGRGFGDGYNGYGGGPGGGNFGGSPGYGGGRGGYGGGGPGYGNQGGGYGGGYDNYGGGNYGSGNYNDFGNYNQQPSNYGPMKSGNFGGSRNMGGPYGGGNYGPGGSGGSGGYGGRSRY

Binder	binding result (rGST hnRNPA2B1)	binding result (rGST APE1 WT)	binding result [1]
GGGGAGGUUAGGGAGGAGGGGGGUAGGCGCC (ssRNA) [EXO-miR]	binds	binds	
AAUGGAUUUUUGGAGCAGG (ssRNA) [hsa-miR-1246]	binds	binds	no binding
GUGUGUACGGAUUGUAGAA (ssRNA) [scrEXO-miR-1246]		no binding	
